# Laboratory results reported in article PMC5943153.
# What was measured:
# Assay in all cases: two-hybrid
# [1] = molecular target: HP0221-T25 (NifU) (Helicobacter pylori strain 26695) (UniProt O25009)
# [2] = molecular target: T25-HP0221 (NifU) (Helicobacter pylori strain 26695) (UniProt O25009)
# [3] = molecular target: T25-HP0220 (NifS) (Helicobacter pylori strain 26695) (UniProt O25008)
# [4] = molecular target: T25-HP1492 (Nfu) (Helicobacter pylori strain 26695) (UniProt O26025)
# [5] = molecular target: T25-Zip
# T25-Zip, sequence (P03069 whole entry): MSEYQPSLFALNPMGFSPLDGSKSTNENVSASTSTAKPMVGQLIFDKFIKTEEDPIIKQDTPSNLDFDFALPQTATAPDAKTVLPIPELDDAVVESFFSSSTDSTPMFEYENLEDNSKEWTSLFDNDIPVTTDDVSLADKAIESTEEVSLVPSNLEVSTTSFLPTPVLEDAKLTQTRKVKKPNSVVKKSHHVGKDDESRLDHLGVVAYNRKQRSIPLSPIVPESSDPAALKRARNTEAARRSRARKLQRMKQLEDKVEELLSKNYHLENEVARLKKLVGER
# T18-Zip (domain or fragment), sequence (P03069 whole entry, the tested form may be a part): as the sequence (P03069 whole entry) above
Substance,growth OD595 in M63-maltose [1],growth OD595 in M63-maltose [2],also measured
T18-HP0117 (from UniProt P56080 2-308) (natural protein),0.36 OD595,,
T18-HP0142 (from UniProt O24954 2-328) (natural protein),0.44 OD595,,
T18-HP0221 (from UniProt O25009 2-326) (natural protein),,0.37 OD595,
T18-HP0285 (from UniProt P56130 2-418) (natural protein),0.25 OD595,,
T18-HP0400 (from UniProt P65185 2-274) (natural protein),,0.11 OD595,
T18-HP0468 (from UniProt O25214 2-495) (natural protein),0.29 OD595,,
T18-HP0768 (from UniProt P56414 2-321) (natural protein),0.21 OD595,,
T18-HP0934 (from UniProt O25588 2-251) (natural protein),0.13 OD595,,
T18-HP1266 (from UniProt O25856 2-844) (natural protein),,0.32 OD595,
T18-HP1406 (from UniProt O25956 2-282) (natural protein),0.26 OD595,,
T18-HP1492 (natural protein),0.29 OD595,0.13 OD595,growth OD595 in M63-maltose [3]: 0.32 OD595; growth OD595 in M63-maltose [4]: 0.39 OD595
T18-Zip (domain or fragment),,,growth OD595 in M63-maltose [5]: 0.23 OD595
